The chains are these.
B1: Amyloid beta precursor protein binding family B member 1 (Homo sapiens), O00213 (parent)
chain: MSVPSSLSQSAINANSHGGPALSLPLPLHAAHNQLLNAKLQATAVGPKDLRSAMGEGGGPEPGPANAKWLKEGQNQLRRAATAHRDQNRNVTLTLAEEASQEPEMAPLGPKGLIHLYSELELSAHNAANRGLRGPGLIISTQEQGPDEGEEKAAGEAEEEEEDDDDEEEEEDLSSPPGLPEPLESVEAPPRPQALTDGPREHSKSASLLFGMRNSAASDEDSSWATLSQGSPSYGSPEDTDSFWNPNAFETDSDLPAGWMRVQDTSGTYYWHIPTGTTQWEPPGRASPSQGSSPQEESQLTWTGFAHGEGFEDGEFWKDEPSDEAPMELGLKEPEEGTLTFPAQSLSPEPLPQEEEKLPPRNTNPGIKCFAVRSLGWVEMTEEELAPGRSSVAVNNCIRQLSYHKNNLHDPMSGGWGEGKDLLLQLEDETLKLVEPQSQALLHAQPIISIRVWGVGRDSGRERDFAYVARDKLTQMLKCHVFRCEAPAKNIATSLHEICSKIMAERRNARCLVNGLSLDHSKLVDVPFQVEFPAPKNELVQKFQVYYLGNVPVAKPVGVDVINGALESVLSSSSREQWTPSHVSVAPATLTILHQQTEAVLGECRVRFLSFLAVGRDVHTFAFIMAAGPASFCCHMFWCEPNAASLSEAVQAACMLRYQKCLDARSQASTSCLPAPPAESVARRVGWTVRRGVQSLWGSLKPKRLGAHTP

In this experiment the parent is B1. The following applies: with lrp1_human LRP1, Q07954.
Chain of lrp1_human LRP1, Q07954 (Q07954 whole entry): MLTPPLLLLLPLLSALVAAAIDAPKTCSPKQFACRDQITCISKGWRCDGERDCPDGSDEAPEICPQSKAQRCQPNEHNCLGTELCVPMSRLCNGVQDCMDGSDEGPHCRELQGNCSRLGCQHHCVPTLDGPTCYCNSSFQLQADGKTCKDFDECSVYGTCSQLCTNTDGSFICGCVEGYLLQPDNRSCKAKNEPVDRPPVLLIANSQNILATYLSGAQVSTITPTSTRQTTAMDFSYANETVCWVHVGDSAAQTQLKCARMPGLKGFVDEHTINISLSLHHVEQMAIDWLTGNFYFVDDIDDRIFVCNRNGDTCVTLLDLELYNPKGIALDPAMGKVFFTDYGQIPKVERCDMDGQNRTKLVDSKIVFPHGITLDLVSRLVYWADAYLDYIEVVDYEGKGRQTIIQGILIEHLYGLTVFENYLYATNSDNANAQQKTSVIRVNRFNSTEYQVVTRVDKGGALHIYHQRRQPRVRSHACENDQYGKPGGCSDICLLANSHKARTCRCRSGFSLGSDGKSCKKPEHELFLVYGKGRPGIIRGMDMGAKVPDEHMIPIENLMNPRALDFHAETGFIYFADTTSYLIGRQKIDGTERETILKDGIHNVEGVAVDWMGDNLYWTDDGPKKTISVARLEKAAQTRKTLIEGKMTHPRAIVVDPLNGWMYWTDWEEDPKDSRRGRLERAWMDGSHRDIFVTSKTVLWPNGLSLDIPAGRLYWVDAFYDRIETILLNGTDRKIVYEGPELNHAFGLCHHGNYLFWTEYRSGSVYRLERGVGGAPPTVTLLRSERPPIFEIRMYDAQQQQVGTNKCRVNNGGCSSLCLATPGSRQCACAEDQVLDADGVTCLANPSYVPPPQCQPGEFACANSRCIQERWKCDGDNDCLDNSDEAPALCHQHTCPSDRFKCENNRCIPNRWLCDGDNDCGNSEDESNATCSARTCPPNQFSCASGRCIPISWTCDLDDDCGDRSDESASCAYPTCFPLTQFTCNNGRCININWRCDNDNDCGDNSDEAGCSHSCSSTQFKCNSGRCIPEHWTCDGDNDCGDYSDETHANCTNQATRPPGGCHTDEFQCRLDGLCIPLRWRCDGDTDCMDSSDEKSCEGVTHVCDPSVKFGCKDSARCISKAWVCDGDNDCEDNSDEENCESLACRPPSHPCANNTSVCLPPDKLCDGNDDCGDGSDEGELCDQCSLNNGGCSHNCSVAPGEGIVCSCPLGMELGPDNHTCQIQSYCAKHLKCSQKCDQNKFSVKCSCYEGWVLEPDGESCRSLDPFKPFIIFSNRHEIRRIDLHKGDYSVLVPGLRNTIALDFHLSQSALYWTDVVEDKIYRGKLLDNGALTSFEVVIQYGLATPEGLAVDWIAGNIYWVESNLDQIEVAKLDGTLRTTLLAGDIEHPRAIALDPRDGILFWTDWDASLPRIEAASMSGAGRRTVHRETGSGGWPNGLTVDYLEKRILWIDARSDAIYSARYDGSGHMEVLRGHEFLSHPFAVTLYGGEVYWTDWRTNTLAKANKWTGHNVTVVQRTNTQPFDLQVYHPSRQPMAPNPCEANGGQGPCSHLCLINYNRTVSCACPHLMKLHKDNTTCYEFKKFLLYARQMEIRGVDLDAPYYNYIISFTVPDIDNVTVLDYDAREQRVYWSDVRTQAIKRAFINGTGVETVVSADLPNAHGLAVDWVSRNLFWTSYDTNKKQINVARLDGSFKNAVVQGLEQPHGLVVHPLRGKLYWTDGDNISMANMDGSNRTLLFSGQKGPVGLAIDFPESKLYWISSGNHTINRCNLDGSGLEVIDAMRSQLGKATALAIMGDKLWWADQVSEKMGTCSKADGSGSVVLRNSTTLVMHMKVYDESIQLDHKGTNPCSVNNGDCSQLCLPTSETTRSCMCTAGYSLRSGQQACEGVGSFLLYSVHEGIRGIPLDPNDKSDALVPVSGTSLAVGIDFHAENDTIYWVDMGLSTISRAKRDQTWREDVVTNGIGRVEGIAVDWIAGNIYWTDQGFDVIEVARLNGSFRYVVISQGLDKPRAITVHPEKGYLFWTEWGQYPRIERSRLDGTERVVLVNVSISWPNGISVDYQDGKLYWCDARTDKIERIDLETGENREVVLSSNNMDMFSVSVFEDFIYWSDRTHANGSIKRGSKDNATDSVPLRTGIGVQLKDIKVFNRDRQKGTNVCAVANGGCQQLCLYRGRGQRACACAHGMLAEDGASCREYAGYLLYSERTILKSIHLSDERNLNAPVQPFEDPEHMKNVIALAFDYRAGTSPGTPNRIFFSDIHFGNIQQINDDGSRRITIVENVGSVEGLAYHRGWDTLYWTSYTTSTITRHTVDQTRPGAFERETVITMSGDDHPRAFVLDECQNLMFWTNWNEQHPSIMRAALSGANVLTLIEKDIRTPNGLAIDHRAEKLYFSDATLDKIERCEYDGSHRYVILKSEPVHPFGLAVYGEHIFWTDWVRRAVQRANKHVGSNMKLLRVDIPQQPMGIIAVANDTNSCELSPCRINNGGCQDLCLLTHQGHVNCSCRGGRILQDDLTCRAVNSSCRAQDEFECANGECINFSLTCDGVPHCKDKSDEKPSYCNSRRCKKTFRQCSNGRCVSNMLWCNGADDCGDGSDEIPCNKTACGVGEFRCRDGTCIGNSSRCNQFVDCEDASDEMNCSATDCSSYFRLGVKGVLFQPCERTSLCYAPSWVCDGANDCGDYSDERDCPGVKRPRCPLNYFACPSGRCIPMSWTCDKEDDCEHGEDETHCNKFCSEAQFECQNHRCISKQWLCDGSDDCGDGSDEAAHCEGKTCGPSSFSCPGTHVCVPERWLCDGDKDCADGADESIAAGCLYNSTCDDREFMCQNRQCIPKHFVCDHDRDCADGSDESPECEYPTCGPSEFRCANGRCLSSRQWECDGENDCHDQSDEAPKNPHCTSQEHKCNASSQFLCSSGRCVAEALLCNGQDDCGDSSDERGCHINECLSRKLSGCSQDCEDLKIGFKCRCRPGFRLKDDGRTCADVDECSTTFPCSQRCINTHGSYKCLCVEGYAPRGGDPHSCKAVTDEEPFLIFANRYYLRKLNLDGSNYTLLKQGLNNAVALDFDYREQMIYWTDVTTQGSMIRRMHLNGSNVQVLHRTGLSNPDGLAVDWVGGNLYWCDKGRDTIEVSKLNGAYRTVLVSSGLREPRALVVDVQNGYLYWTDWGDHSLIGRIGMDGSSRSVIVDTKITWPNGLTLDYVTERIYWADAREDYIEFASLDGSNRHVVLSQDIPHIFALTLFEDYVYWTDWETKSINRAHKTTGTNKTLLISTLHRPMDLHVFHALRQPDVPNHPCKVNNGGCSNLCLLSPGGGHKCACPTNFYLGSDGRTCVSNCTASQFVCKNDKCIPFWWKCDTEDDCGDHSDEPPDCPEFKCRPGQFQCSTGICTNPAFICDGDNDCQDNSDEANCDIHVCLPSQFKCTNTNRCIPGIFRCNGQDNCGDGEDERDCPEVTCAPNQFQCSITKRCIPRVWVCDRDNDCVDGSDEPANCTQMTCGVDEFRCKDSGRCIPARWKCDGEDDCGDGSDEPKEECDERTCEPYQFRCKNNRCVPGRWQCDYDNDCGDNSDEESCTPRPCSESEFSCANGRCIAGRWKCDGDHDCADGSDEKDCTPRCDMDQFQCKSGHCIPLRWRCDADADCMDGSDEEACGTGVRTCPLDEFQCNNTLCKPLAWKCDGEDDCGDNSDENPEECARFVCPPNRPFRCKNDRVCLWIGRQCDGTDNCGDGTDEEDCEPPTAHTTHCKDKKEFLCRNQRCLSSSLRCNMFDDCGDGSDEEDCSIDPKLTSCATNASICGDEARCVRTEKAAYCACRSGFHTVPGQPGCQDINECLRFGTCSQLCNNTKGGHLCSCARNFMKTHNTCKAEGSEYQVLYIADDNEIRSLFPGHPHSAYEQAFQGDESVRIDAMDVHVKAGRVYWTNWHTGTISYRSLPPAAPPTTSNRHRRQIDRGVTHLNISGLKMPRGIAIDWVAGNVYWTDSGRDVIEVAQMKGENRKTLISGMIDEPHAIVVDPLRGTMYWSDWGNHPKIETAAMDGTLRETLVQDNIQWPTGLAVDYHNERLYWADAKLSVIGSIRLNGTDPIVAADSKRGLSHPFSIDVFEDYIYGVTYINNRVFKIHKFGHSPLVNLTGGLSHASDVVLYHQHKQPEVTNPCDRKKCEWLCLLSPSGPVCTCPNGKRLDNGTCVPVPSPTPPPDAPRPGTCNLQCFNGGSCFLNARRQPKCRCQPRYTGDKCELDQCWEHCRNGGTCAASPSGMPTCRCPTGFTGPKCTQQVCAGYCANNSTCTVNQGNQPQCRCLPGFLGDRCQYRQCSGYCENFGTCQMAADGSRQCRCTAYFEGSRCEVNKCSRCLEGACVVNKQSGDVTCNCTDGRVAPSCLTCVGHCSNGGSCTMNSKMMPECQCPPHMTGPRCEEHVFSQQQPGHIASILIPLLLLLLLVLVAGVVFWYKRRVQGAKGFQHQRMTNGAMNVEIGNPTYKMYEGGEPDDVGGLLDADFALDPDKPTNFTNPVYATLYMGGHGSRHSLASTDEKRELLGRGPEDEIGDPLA
With R470A, the “effect of a mutation on the interaction” value is given as “disrupting interaction”.
With R451A, the “effect of a mutation on the interaction” value is recorded as “disrupting interaction”.

The values above are taken from IntAct's records for PubMed 21968187.
